Experimental data reported in publication doi:10.1101/2020.11.24.396648.

Key:
Assay in all cases: cryo-EM structure
[1] = biological target: E. faecalis 70S ribosome (Enterococcus faecalis (endogenous in TX5332))
[2] = biological target: L. monocytogenes 70S ribosome (Listeria monocytogenes (endogenous in EDG-e)) (UniProt B8DAY5)
[3] = biological target: S. aureus 70S ribosome (Staphylococcus aureus (endogenous in SH1000)) (UniProt P48940)
UniProt P48940, sequence (P48940 whole entry, looked up): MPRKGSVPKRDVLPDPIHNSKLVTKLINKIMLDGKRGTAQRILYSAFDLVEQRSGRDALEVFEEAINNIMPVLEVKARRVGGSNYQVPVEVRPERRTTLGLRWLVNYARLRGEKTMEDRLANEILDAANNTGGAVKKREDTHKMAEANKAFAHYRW

For “E. faecalis LsaA-EQ2-HTF (ATPase-deficient E142Q/E452Q, C-terminal His6-TEV-FLAG3 tag) (natural protein)”, the occupancy of the factor on the ribosome (percent of picked ribosomal particles) [1] was > 95%.

“L. monocytogenes VgaL-EQ2-HTF (Lmo0919, ATPase-deficient E104Q/E408Q, C-terminal His6-TEV-FLAG3 tag) (natural protein)” was tested, and the occupancy of the factor on the ribosome (percent of picked ribosomal particles) [2] was 70%.

“S. haemolyticus VgaALC-EQ2-FLAG3 (ATPase-deficient E105Q/E410Q, C-terminal FLAG3 tag) (natural protein)” was tested, and the occupancy of the factor on the ribosome (percent of picked ribosomal particles) [3] was 60%.
